The results in this text go back to article PMC7954794, “Protein context shapes the specificity of SH3 domain-mediated interactions in vivo” (Nature Communications, 2021).

Common to all, as to format: cell-based, Saccharomyces cerevisiae
The test system of one experiment is BEM1-1. Put plainly: DHFR-PCA on solid medium, bait BEM1-1 (Fig. 1B). Conditions: bait BEM1-1, label = prey; 2-8 replicates. The text has this:
(§1) Supplement 41467_2021_21873_MOESM8_ESM.xlsx, sheet "Fig1B" | column: medsize; medrep; Ratio; Score

The test system of the next experiment is BOI2. In words: DHFR-PCA on solid medium, bait BOI2 (Fig. 1B). Conditions: bait BOI2, label = prey; for medrep (log2 median colony size normalized to plate background, PCA score): 3-8 replicates.
Source text: as §1

A further experiment concerns BOI1. Put plainly: DHFR-PCA on solid medium, bait BOI1 (Fig. 1B). Conditions: bait BOI1, label = prey; for medrep (log2 median colony size normalized to plate background, PCA score): 3-8 replicates.
Source text: as §1

The next experiment has as its system BEM1-2. Put plainly: DHFR-PCA on solid medium, bait BEM1-2 (Fig. 1B). Conditions: bait BEM1-2, label = prey; for medrep (log2 median colony size normalized to plate background, PCA score): 2-8 replicates; for Ratio (SH3-deleted/WT medrep): only significant differences showed, PPIs completely lost have a ratio of 0.1 and the gained PPIs 2.5.
Source text: as §1

Experiment [1] relates to 575 putative partners (preys) of 22 WT SH3-containing proteins. In words: DHFR-PCA on solid medium, WT and SH3-deleted baits (Fig. 1B). Further details: key to Score: 0: SH3-independent; 1: SH3-dependent PPIs; 2: SH3-inhibited PPIs. As to conditions: for medrep (log2 median colony size normalized to plate background, PCA score): label = prey. The method in brief: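 In S. cerevisiae, 22 SH3-containing baits fused genomically to DHFR F[1,2], either WT or with each SH3 replaced via CRISPR by a poly-Gly/Ser linker, screened against 575 DHFR F[3] preys plus 40 negative controls in 1536 arrays, preys duplicated at randomized positions.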

For a further experiment, the system named is BBC1. Put plainly: DHFR-PCA on solid medium, bait BBC1 (Fig. 1B). As to conditions: bait BBC1, label = prey.
Source text: as §1

Another experiment has as its system ABP1. Put plainly: DHFR-PCA on solid medium, bait ABP1 (Fig. 1B). As to conditions: bait ABP1, label = prey; 2-4 replicates.
Source text: as §1

The mark [2] stands for this setting: only significant differences showed, PPIs completely lost have a ratio of 0.1 and the gained PPIs 2.5.

B1: YDR379W (protein, UniProt Q06407 1-1009, looked up)
Rho-type GTPase-activating …: MSADPINDQSSLCVRCNKSIASSQVYELESKKWHDQCFTCYKCDKKLNADSDFLVLDIGTLICYDCSDKCTNCGDKIDDTAIILPSSNEAYCSNCFRCCRCSNRIKNLKYAKTKRGLCCMDCHEKLLRKKQLLLENQTKNSSKEDFPIKLPERSVKRPLSPTRINGKSDVSTNNTAISKNLVSSNEDQQLTPQVLVSQERDESSLNDNNDNDNSKDREETSSHARTVSIDDILNSTLEHDSNSIEEQSLVDNEDYINKMGEDVTYRLLKPQRANRDSIVVKDPRIPNSNSNANRFFSIYDKEETDKDDTDNKENEIIVNTPRNSTDKITSPLNSPMAVQMNEEVEPPHGLALTLSEATKENNKSSQGIQTSTSKSMNHVSPITRTDTVEMKTSTSSSTLRLSDNGSFSRPQTADNLLPHKKVAPSPNKKLSRSFSLKSKNFVHNLKSKTSEMLDPKHPHHSTSIQESDTHSGWGVSSTHTNIRKSKAKKNPVSRGQSDSTIYNTLPQHGNFTVPEFNHKKAQSSLGSISKKQNSNDTATNRRINGSFTSSSSGHHIAMFRTPPLESGPLFKRPSLSSESAHHRSSSLQTSRSTNALLEDDSTKVDATDESATSLEKDFYFTELTLRKLKLDVRELEGTKKKLLQDVENLRLAKERLLNDVDNLTREKDKQSASSRESLEQKENIATSITVKSPSSNSDRKGSISNASPKPRFWKIFSSAKDHQVGDLESQQRSPNSSSGGTTNIAQKEISSPKLIRVHDELPSPGKVPLSPSPKRLDYTPDGSHLYGSSLQARCAYEKSTVPIIIRCCIDRIEKDDIGLNMEGLYRKSGSQTLVEEIENEFAQNNSLHSDTLSPKLNALLNQDIHAVASVLKRYLRKLPDPVLSFSIYDALIDLVRNNQLIERLPLNNDKFLDSPQKVTIYEMVLKSLLEIFKILPVEHQEVLKVLAAHIGKVRRCSERNLMNLHNLSLVFAPSLIHDFDGEKDIVDMKERNYIVEFILGNYRDIFKQA
Regarding B1, the “medrep (log2 median colony size normalized to plate background, PCA score)” value with BEM1-1 is given as 2.957; in the experiment with BOI2, 2.382; in the experiment on BOI1, 1.407; with BEM1-2, 2.957. The entries for the “Ratio (SH3-deleted/WT medrep)” value in the experiment with BOI1 (setting [2]) and in the experiment on BEM1-2 were 2.5 and 0.1, respectively.

B2: YKR048C (protein, UniProt P25293 1-417, looked up)
Nucleosome assembly protein: MSDPIRTKPKSSMQIDNAPTPHNTPASVLNPSYLKNGNPVRAQAQEQDDKIGTINEEDILANQPLLLQSIQDRLGSLVGQDSGYVGGLPKNVKEKLLSLKTLQSELFEVEKEFQVEMFELENKFLQKYKPIWEQRSRIISGQEQPKPEQIAKGQEIVESLNETELLVDEEEKAQNDSEEEQVKGIPSFWLTALENLPIVCDTITDRDAEVLEYLQDIGLEYLTDGRPGFKLLFRFDSSANPFFTNDILCKTYFYQKELGYSGDFIYDHAEGCEISWKDNAHNVTVDLEMRKQRNKTTKQVRTIEKITPIESFFNFFDPPKIQNEDQDEELEEDLEERLALDYSIGEQLKDKLIPRAVDWFTGAALEFEFEEDEEEADEDEDEEEDDDHGLEDDDGESAEEQDDFAGRPEQAPECKQS
Turning to B2, the “medrep (log2 median colony size normalized to plate background, PCA score)” value was 1.303 in experiment [1] (bait SLA1-2, DHFR-PCA, Replicates 4 (2 for YCR009C, YDR388W)); 1.303 in experiment [1] (bait SLA1-3, DHFR-PCA, Replicates 4 (2 for YCR009C, YDR388W, YIL033C)); 1.303 with BOI2; 1.806 in the experiment with BBC1 (2-4 replicates); 3.939 in the experiment with ABP1. The Score is given as 1 in experiment [1] (bait SLA1-2, label = prey) and 0 in experiment [1] (bait SLA1-3, label = prey). Further, the “Ratio (SH3-deleted/WT medrep)” value in experiment [1] (bait SLA1-2, label = prey, only significant differences shown, PPIs completely lost have a ratio of 0.1, gained PPIs 2.5) amounted to 0.1; with BOI2 (setting [2]), 2.5; with BBC1 (setting [2]), 0.1.

B3: YER114C (protein)
chain: PMYIAINEYFKRMEDELDMKPGDKIKVITDDEEYKDGWYFGRNLRTNEEGLYPVVFTQKIT
For B3, the “medrep (log2 median colony size normalized to plate background, PCA score)” value with BEM1-1 is reported as 2.85; in the experiment on BOI2, 3.383; in the experiment on BEM1-2, 2.85. Also, the “Ratio (SH3-deleted/WT medrep)” value in the experiment on BEM1-2 is reported as 0.1.

B4: YAL041W (protein, UniProt P11433 1-854, looked up)
Cell division control protein …: MAIQTRFASGTSLSDLKPKPSATSISIPMQNVMNKPVTEQDSLFHICANIRKRLEVLPQLKPFLQLAYQSSEVLSERQSLLLSQKQHQELLKSNGANRDSSDLAPTLRSSSISTATSLMSMEGISYTNSNPSATPNMEDTLLTFSMGILPITMDCDPVTQLSQLFQQGAPLCILFNSVKPQFKLPVIASDDLKVCKKSIYDFILGCKKHFAFNDEELFTISDVFANSTSQLVKVLEVVETLMNSSPTIFPSKSKTQQIMNAENQHRHQPQQSSKKHNEYVKIIKEFVATERKYVHDLEILDKYRQQLLDSNLITSEELYMLFPNLGDAIDFQRRFLISLEINALVEPSKQRIGALFMHSKHFFKLYEPWSIGQNAAIEFLSSTLHKMRVDESQRFIINNKLELQSFLYKPVQRLCRYPLLVKELLAESSDDNNTKELEAALDISKNIARSINENQRRTENHQVVKKLYGRVVNWKGYRISKFGELLYFDKVFISTTNSSSEPEREFEVYLFEKIIILFSEVVTKKSASSLILKKKSSTSASISASNITDNNGSPHHSYHKRHSNSSSSNNIHLSSSSAAAIIHSSTNSSDNNSNNSSSSSLFKLSANEPKLDLRGRIMIMNLNQIIPQNNRSLNITWESIKEQGNFLLKFKNEETRDNWSSCLQQLIHDLKNEQFKARHHSSTSTTSSTAKSSSMMSPTTTMNTPNHHNSRQTHDSMASFSSSHMKRVSDVLPKRRTTSSSFESEIKSISENFKNSIPESSILFRISYNNNSNNTSSSEIFTLLVEKVWNFDDLIMAINSKISNTHNNNISPITKIKYQDEDGDFVVLGSDEDWNVAKEMLAENNEKFLNIRLY
As to B4, the “medrep (log2 median colony size normalized to plate background, PCA score)” value was found to be 4.862 with BEM1-1, 3.947 with BOI2, 2.673 in the experiment on BOI1 and 4.862 in the experiment with BEM1-2.
